Biological target: CREI-96 (truncated Carbon catabolite repressor 1, Cre1-96) (Trichoderma reesei Rut-C30, UniProt G0RB08 1-96)
Assay: competition; 2000 nM protein; 50-, 100-, 200-fold competitor against N1; bands unchanged; GST elution buffer, 10 min at 22 °C; non-denaturing PAGE; salt and pH not stated
Settings: protein: recombinant; tags: GST fusion (37 kDa), thrombin-cleaved before use; label: unlabelled; blunt

Chain of CREI-96 (truncated Carbon catabolite repressor 1, Cre1-96) (G0RB08 entry or part of it): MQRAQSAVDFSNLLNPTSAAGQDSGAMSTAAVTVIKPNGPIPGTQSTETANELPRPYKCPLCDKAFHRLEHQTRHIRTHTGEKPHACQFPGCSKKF

B1: mutated cold competitor RG221/RG222 (dsDNA)
DNA 1: CCAACGGCTTGTTGGGTTGCAGAAGCAACGGCAAAGCCCAACTTCCCAACGTTTGTTTCT
DNA 2: AGAAACAAACGTTGGGAAGTTGGGCTTTGCCGTTGCTTCTGCAACCCAACAAGCCGTTGG
B1: no binding.

— publication PMC4173072, “A truncated form of the Carbon catabolite repressor 1 increases cellulase production in Trichoderma reesei”
